# Assay results published in patent publication US20250027068A1.
# Biological target: pooled human IgG (human)
# Assay: cell-based or functional assay
Binder,Enzyme Activity Endpoint Assay: Fab′2 [ng/µL],Enzyme Activity Endpoint Assay: Fc [ng/µL],Enzyme Activity Endpoint Assay: IgG [ng/µL],Enzyme Activity Endpoint Assay: scIgG [ng/µL]
VRT-18 (Fc fusion) QITSVWTKGVTPLTPEQFRYNNEDVIHAPYLAHQGWYDITKAFDGKDNLLCGAATAGNMLHWWFDQNKTEIEAYLSKHPEKQKIIFNNQELFDLKAAIDTKDSQTNSQLFNYFRDKAFPGLSARQLGVFPDLVLDMFINGYYLNVFKTQSTDVNRPYQDKDKRGGIFDAVFTRGVQTTLLTARHDLKNKGLNDISTIIKQELTEGRALALSHTYANVRISHVINLWGADFNAEGNLEAIYVTDSDANASIGMKKYFVGINAHGHVAISAKKIEGENIGAQVLGLFTLSSGKDIWQKLSDKTHTCPPCPAPEAAGAPSVFLFPPKPKDTLMISRTPEVTCVVVDVSHEDPEVKFNWYVDGVEVHNAKTKPREEQQNSTYRVVSVLTVLHQDWLNGKEYKCKVSNKALKAPIEKTISKAKGQPREPQVYTLPPSRDELTKNQVSLTCLVKGFYPSDIAVEWESNGQPENNYKTTPPVLDSDGSFFLYSKLTVDKSRWQQGNVFSCSVMHEALHNHYTQKSLSLSPG,0,4,995,9
VRT-16 (Fc fusion) VTSVWTKGVTPPANFTQGEDVFHAPYVANQGWYDITKTFNGKDNLLCGAATAGNMLHWWFDQNKDQIKRYLEEHPEKQKINFNGEQLFDVKEAIDTKNHQLDSKLFEYFKEKAFPYLSTKHLGVFPDHVIDMFINGYRLSLTNHGPTPVKEGSKDKRGGIFDAVFTRGVQSKLLTSRHDFKEKNLKEISDLIKKELTEGKALGLSHTYANVRINHVINLWGADFDSNGNLKAIYVTDSDTNASIGMKKYFVGVNSAGKVAISAKEIKEDNIGAQVLGLFTLSTGQDSWNQTNDKTHTCPPCPAPEAAGAPSVFLFPPKPKDTLMISRTPEVTCVVVDVSHEDPEVKFNWYVDGVEVHNAKTKPREEQQNSTYRVVSVLTVLHQDWLNGKEYKCKVSNKALKAPIEKTISKAKGQPREPQVYTLPPSRDELTKNQVSLTCLVKGFYPSDIAVEWESNGQPENNYKTTPPVLDSDGSFFLYSKLTVDKSRWQQGNVFSCSVMHEALHNHYTQKSLSLSPG,0,130,682,91
VRT-20 (Fc fusion) VTSVWTKGVTPPANFTQGEDVFHAPYVANQGWYDITKTFNRKDNLLCGAATAGNMLHWWFDQNKDQIKRYLEEHPEKQKINFKGEQLFDVKEAIDTKNHQLDSKLFEYFKEKAFPYLSTKHLGVFPDHVIDMFINGYRLSLTNHGPTPVKEGSKDKRGGIFDAVFTRGVQSKLLTSRHDFKEKNLKEISDLIKKELTEGKALGLSHTYANVRINHVINLWGADFDSNGNLKAIYVTDSDTEASIGMKKYFVGVNKAGKVAISAKEIKEDNIGAQVLGLFTLSTGQDSWNQTNDKTHTCPPCPAPEAAGAPSVFLFPPKPKDTLMISRTPEVTCVVVDVSHEDPEVKFNWYVDGVEVHNAKTKPREEQQNSTYRVVSVLTVLHQDWLNGKEYKCKVSNKALKAPIEKTISKAKGQPREPQVYTLPPSRDELTKNQVSLTCLVKGFYPSDIAVEWESNGQPENNYKTTPPVLDSDGSFFLYSKLTVDKSRWQQGNVFSCSVMHEALHNHYTQKSLSLSPG,0,5,981,12
VRT-12 (Fc fusion) QITSVWTKGVTPLTPEQFRYNNEDVIHAPYLANQGWYDITKTFNGKDNLLCGAATAGNMLHWWFDQNKTEIEAYLKKHPEKQKIIFNNQELFDLKAAIDTKDSQTNSQLFNYFRDKAFPNLSARQLGVMPDLVLDMFINGYYLNVFKTQSTDVNRPYQDKDKRGGIFDAVFTRGDQTTLLTARHDLKNKGLNEISTLIKQELTEGKALALSHTYANVSISHVINLWGADFNAEGNLEAIYVTDSDSNASIGMKKYFVGVNAHGKVAISAKKIEGENIGAQVLGLFTLSSGKDIWQKLSDKTHTCPPCPAPEAAGAPSVFLFPPKPKDTLMISRTPEVTCVVVDVSHEDPEVKFNWYVDGVEVHNAKTKPREEQQNSTYRVVSVLTVLHQDWLNGKEYKCKVSNKALKAPIEKTISKAKGQPREPQVYTLPPSRDELTKNQVSLTCLVKGFYPSDIAVEWESNGQPENNYKTTPPVLDSDGSFFLYSKLTVDKSRWQQGNVFSCSVMHEALHNHYTQKSLSLSPG,0,101,747,64
VRT-13 (Fc fusion) QITSVWTKGVTPPTPEQFRYNNEDVFHAPYTAHQGWYDITKTFDGKDNLLCGAATAGNMLHWWFDQNKTEIEAYLSKHPEKQKIIFNNQELFDLKAAIDTKDSQTNSALFNYFRDKAFPNLSARQLGVMPDLVLDMFINGYYLNVFKTQSTDVNRPYQDKDKRGGIFDAVFTRGDQTTLLTARHDLKNKTLNDISTIIKQELTEGRALALSHTYANVSISHVINLWGADFNAEGNLEAIYVTDSDSNASIGMKKYFVGVNASGKVAISAKKIEGENIGAQVLGLFTLSSGKDIWQKLSDKTHTCPPCPAPEAAGAPSVFLFPPKPKDTLMISRTPEVTCVVVDVSHEDPEVKFNWYVDGVEVHNAKTKPREEQQNSTYRVVSVLTVLHQDWLNGKEYKCKVSNKALKAPIEKTISKAKGQPREPQVYTLPPSRDELTKNQVSLTCLVKGFYPSDIAVEWESNGQPENNYKTTPPVLDSDGSFFLYSKLTVDKSRWQQGNVFSCSVMHEALHNHYTQKSLSLSPG,0,97,814,42
VRT-14 (Fc fusion) SQTEDSESLQRLRDIEDFQAEKKKQNVVYTKWLDGVDVKDHDFRKIVDGNIAYYATPLLNGRGFYDINKDFNRDSDKCAAAVAANMFHYWLDRNRDNVDRFLRQNPEKHGIIELPDGQLKLSDFLNTYESDDGYRDKSKLFDFISNNFNGPVWTDKLLDNYINGYAYNYKYGRTIEDPTKNTSKINFFKEVFNEKILTNNHSIRNQNEFSVLLSEALYTGKAIGLSYGPAGLRHSLGHIISVWGADLDADGNVVAIYVTDSDDKKLTIGDERVGLKRYKISTDDEGRLRLTAYEETHNTGGQIRGLWTLDTGKQAWADYFDKTEQTGTDQAEQDKTHTCPPCPAPEAAGAPSVFLFPPKPKDTLMISRTPEVTCVVVDVSHEDPEVKFNWYVDGVEVHNAKTKPREEQQNSTYRVVSVLTVLHQDWLNGKEYKCKVSNKALKAPIEKTISKAKGQPREPQVYTLPPSRDELTKNQVSLTCLVKGFYPSDIAVEWESNGQPENNYKTTPPVLDSDGSFFLYSKLTVDKSRWQQGNVFSCSVMHEALHNHYTQKSLSLSPG,0,4,1020,22
VRT-19 (Fc fusion) SQTEDSESLQRLRDIEDFQAEKKMQNVVYTKWLDGVDVKDHDFRKIVDGNIAYYATPLLNGRGFYDINKDFNRDNDKCAAAVAANMFHYWLDINRDNVDRFLRQNPEKHGIIELPDGQLKLSDFLNTYESDHGYRDKSKLFDFISNNFNGPVWTDKLLDNYINGYAYNYKYGRTIEDSTKNTSKINFFKEVFNEKILTNNHSIRNQNEFSVLLSEALYTGKAIGLSYGPAGLRHSLGHIISVWGADLDADGNVVAIYVTDSDDKKLTIGDERVGLKRYKISTDDENRLRLTAYEETHNTGGQIRGLWTLDTGKYAWADYFDKTEQTGTDQAEQDKTHTCPPCPAPEAAGAPSVFLFPPKPKDTLMISRTPEVTCVVVDVSHEDPEVKFNWYVDGVEVHNAKTKPREEQQNSTYRVVSVLTVLHQDWLNGKEYKCKVSNKALKAPIEKTISKAKGQPREPQVYTLPPSRDELTKNQVSLTCLVKGFYPSDIAVEWESNGQPENNYKTTPPVLDSDGSFFLYSKLTVDKSRWQQGNVFSCSVMHEALHNHYTQKSLSLSPG,0,54,1250,33
VRT-17 (Fc fusion) VTSVWTKGVTPPAKFTQGEDVFHAPYVANQGWYDITKTFNGKDNLLCGAATAGNMLHWWFDQNKEKIEAYLKKHPDKQKIIFGDQELLDVRKVINTKGDQTNSELFNYFRDKAFPGLSARRIGVFPDLVLDMFINGYYLNVYKTQTTDVNRTYQEKDRRGGIFDAVFTRGVQSKLLTSRHDFKEKNLKEISDLIKKELTEGKALGLSHTYANVRINHVINLWGADFDSNGNLKAIYVTDSDTNASIGMKKYFVGVNSAGKVAISAKEIKEDNIGAQVLGLFTLSTGQDSWNQTNDKTHTCPPCPAPEAAGAPSVFLFPPKPKDTLMISRTPEVTCVVVDVSHEDPEVKFNWYVDGVEVHNAKTKPREEQQNSTYRVVSVLTVLHQDWLNGKEYKCKVSNKALKAPIEKTISKAKGQPREPQVYTLPPSRDELTKNQVSLTCLVKGFYPSDIAVEWESNGQPENNYKTTPPVLDSDGSFFLYSKLTVDKSRWQQGNVFSCSVMHEALHNHYTQKSLSLSPG,0,5,1030,20
VRT-21 (Fc fusion) VTSVWTKGVTPPAKFTQGEDVFHAPYVANQGWYDITKTFNRKDNLLCGAATAGNMLHWWFDQNKEKIEAYLKKHPDKQKIIFGDQELLDVRKVINTKGDQTNSELFNYFRDKAFPGLSARRIGVFPDLVLDMFINGYYLNVYKTQTTDVNRTYQEKDRRGGIFDAVFTRGVQSKLLTSRHDFKEKNLKEISDLIKKELTEGKALGLSHTYANVRINHVINLWGADFDSNGNLKAIYVTDSDTRASIGMKKYFVGVNAAGKVAISAKEIKEDNIGAQVLGLFTLSTGQDSWNQTNDKTHTCPPCPAPEAAGAPSVFLFPPKPKDTLMISRTPEVTCVVVDVSHEDPEVKFNWYVDGVEVHNAKTKPREEQQNSTYRVVSVLTVLHQDWLNGKEYKCKVSNKALKAPIEKTISKAKGQPREPQVYTLPPSRDELTKNQVSLTCLVKGFYPSDIAVEWESNGQPENNYKTTPPVLDSDGSFFLYSKLTVDKSRWQQGNVFSCSVMHEALHNHYTQKSLSLSPG,0,6,949,11
